From paper PMC4142144 (Molecular cell, 2014) come the findings set out here.

The data set “SEC-MALS” deals with the molecule itself. Put plainly: SEC-MALS. A general note: SEC sorts molecules by how far they enter the pores of the column.
In a further data set the target is mono-ubiquitin (UniProt P0CG48 1-76). Put plainly: crystal structure.

B1: 2CARD^RIG-I(E52A)-CARD^MAVS(KKK) fusion protein, 42 aa linker (other)
chain: MTTEQRRSLQAFQDYIRKTLDPTYILSYMAPWFREEEVQYIQAEKNNKGPMAAATLFLKFLLELQEEGWFRGFLDALDHAGYSGLYEAIESWDFKKIEKLEEYRLLLKRLQPEFKTRIIPTDIISDLSECLINQECEEILQICSTKGMMAGAEKLVECLLRSDKENWPKTLKLALEKERNKFSELWIVMPFAEDKTYKYICRNFSNFCNVKVVKILPYLPCLTARDQDRLRATCTLSGNRDTLWHLFNTLQRRPGWVEYFIAALRGCKLVDLADEVASVYQSYQP
A word on the stoichiometry N: it is a count of units in the complex or per binding partner. For the molecule B1, the “stoichiometry N” value in “SEC-MALS” was found to be 4.

B2: 2CARD^RIG-I(E52A) (domain or fragment, human, UniProt O95786 1-188, looked up)
chain: MTTEQRRSLQAFQDYIRKTLDPTYILSYMAPWFREEEVQYIQAEKNNKGPMAAATLFLKFLLELQEEGWFRGFLDALDHAGYSGLYEAIESWDFKKIEKLEEYRLLLKRLQPEFKTRIIPTDIISDLSECLINQECEEILQICSTKGMMAGAEKLVECLLRSDKENWPKTLKLALEKERNKFSELWIV
Consider B2, for which the binding result in the data set with mono-ubiquitin is reported as “binds”.
